Measurements from patent US20190328788A1 (GENAGON THERAPEUTICS, published 2019).
Ends that are not written are not given here.

T1: Growth and Differentiation Factor 15 (GDF15) (UniProt Q99988 197-308, limits assumed)
T1 construct: also called MIC-1; MIC1
T1 sequence (looked up): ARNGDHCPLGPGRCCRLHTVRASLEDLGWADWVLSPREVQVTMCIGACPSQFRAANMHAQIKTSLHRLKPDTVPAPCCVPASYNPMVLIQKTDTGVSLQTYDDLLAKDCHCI

T2: transforming growth factor-beta 2 (TGF-β2) (UniProt P61812 303-414)
T2 construct: also called TGFb2; TGFB2
T2 sequence (looked up): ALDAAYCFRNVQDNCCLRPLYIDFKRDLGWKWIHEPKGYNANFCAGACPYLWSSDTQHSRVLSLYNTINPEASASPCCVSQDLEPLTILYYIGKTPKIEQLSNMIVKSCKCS

T3: transforming growth factor-beta 3 (TGF-β3) (UniProt P10600 301-412)
T3 construct: also called TGFb3; TGFB3
T3 sequence (looked up): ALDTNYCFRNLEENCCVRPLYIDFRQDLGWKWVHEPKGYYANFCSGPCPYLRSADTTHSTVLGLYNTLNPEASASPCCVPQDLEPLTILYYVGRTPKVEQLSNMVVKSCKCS

B1: CLPTM1 peptide fragment of SEQ ID NO: 24 (peptide)
peptide: STKSPWNFLGDELYEQSDEEG
modifications: also: biotinylated, site not given here
B2: CLPTM1 peptide fragment of SEQ ID NO: 20 (peptide)
peptide: ITINIVDDHTPWVKGSVPPPG
modifications: also: biotinylated, site not given here
B3: CLPTM1 peptide fragment of SEQ ID NO: 40 (peptide)
peptide: SGDYYPIIYFNDYWNLQKDYYPINESLA
modifications: also: biotinylated, site not given here
notes: also called peptide 33; GT9
B4: CLPTM1 peptide fragment of SEQ ID NO: 38 (peptide)
peptide: VSGDYYPIIYFNDYWNLQKDYYPINESLASLPLRVSFC
modifications: also: biotinylated, site not given here
notes: also called peptide 31; GT7
B5: CLPTM1 peptide fragment of SEQ ID NO: 11 (peptide)
peptide: RIFIIWAISSWFRRGPAPQDG
modifications: also: biotinylated, site not given here
B6: CLPTM1 peptide fragment of SEQ ID NO: 22 (peptide)
peptide: NDYWNLQKDYYPINESLASLG
modifications: also: biotinylated, site not given here
B7: CLPTM1 peptide fragment of SEQ ID NO: 19 (peptide)
peptide: MIKRAEDYGPVEVISHWHPNG
modifications: also: biotinylated, site not given here
B8: CLPTM1 peptide fragment of SEQ ID NO: 32 (peptide)
peptide: SGDYYPIIYFNDYWNLQKDYYPINESLASLPLRVSFCPLS
modifications: also: biotinylated, site not given here
notes: also called peptide 25; GT1
B9: CLPTM1 peptide fragment of SEQ ID NO: 39 (peptide)
peptide: PLDQYVKFDAVSGDYYPIIYFNDYWNLQKDYYPINESLA
modifications: also: biotinylated, site not given here
notes: also called peptide 32; GT8
B10: CLPTM1 peptide fragment of SEQ ID NO: 12 (peptide)
peptide: QAGPGGAPRVASRNLFPKDTG
modifications: also: biotinylated, site not given here
B11: CLPTM1 peptide fragment of SEQ ID NO: 10 (peptide)
peptide: QNPPAQPAPNAWQVIKGVLFG
modifications: also: biotinylated, site not given here
B12: CLPTM1 peptide fragment of SEQ ID NO: 23 (peptide)
peptide: PLRVSFCPLSLWRWQLYAAQG
modifications: also: biotinylated, site not given here
B13: CLPTM1 peptide fragment of SEQ ID NO: 9 (peptide)
peptide: SGQVTSNGSIGRDPPAETQPG
modifications: also: biotinylated, site not given here
B14: CLPTM1 peptide fragment of SEQ ID NO: 33 (peptide)
peptide: LWRWQLYAAQSTKSPWNFLGDELYEQSDEEQDSVKVALLETNP
modifications: also: biotinylated, site not given here
notes: also called peptide 26; GT2

Target: T1, Growth and Differentiation Factor 15 …
Assay: ELISA, peptide on streptavidin plate, ligand 100 ng/ml
Description: (§1) Biotinylated synthetic peptide fragments from CLPTM1 (JPT peptides, Germany) were immobilized in a streptavidin 96 well plate (#15500 Pierce) at 1 μM in PBS over night at +4° C. Plate was then washed 4 times in 300 μl PBS with 0.05% tween-20 (wash buffer). The plate was then blocked with PBS 1% BSA and 0.05% tween-20 (blocking buffer) for 1.5 hours at room temperature, then washed 4 times in wash buffer. Ligands GDF15, TGFb1, TGFb2 and TGFb3 (Abcam) were added in blocking buffer at 100 ng/ml and incubated at room temperature for 2 hours. The plate was then washed 8 times in 300 μL wash buffer with 2× NaCl. An anti-GDF15 antibody was added at 1 μg/ml (R&D Systems, goat polyclonal) or a pan-specific anti-TGFb antibody (R&D Systems, mouse 1 D11), and the plate incubated in blocking buffer for 1 hour at room temperature followed by washing with 4×300 μl wash buffer. HAF017 anti-goat-HRP antibody (to detect the anti-GDF15 antibody) or Santa Cruz sc-2005 Goat anti-mouse-HRP (to detect the pan-specific anti-TGFb antibody) was added and the plate incubated for 1 hour in blocking buffer followed by a wash. TMB substrate was added and stopped after 15 minutes with H₂SO₄. OD 450-620 was measured in an ELISA reader.

| ELISA OD450 | Binder |
| --- | --- |
| 0.053 OD450 | B1 |
| 0.098 OD450 | B2 |
| 0.518 OD450 | B3 |
| 0.383 OD450 | B4 |
| 0.026 OD450 | B5 |
| 0.038 OD450 | B6 |
| 0.028 OD450 | B7 |
| 0.779 OD450 | B8 |
| 0.137 OD450 | B9 |
| 0.034 OD450 | B10 |
| 0.042 OD450 | B11 |
| 0.063 OD450 | B12 |
| 0.009 OD450 | B13 |
| 0.021 OD450 | B14 |

Target: T4, transforming growth factor-beta 1 (TGF-β1) (UniProt P01137 279-390)
T4 construct: also called TGFb1; TGFB1
Assay: as above
Description: as §1

T4 sequence (P01137 279-390 limits assumed): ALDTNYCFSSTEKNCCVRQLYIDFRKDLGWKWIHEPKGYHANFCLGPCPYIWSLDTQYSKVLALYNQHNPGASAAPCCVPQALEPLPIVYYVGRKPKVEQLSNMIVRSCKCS

| ELISA OD450 | Binder |
| --- | --- |
| 0.018 OD450 | B1 |
| 0.011 OD450 | B2 |
| 2.81 OD450 | B3 |
| 1.01 OD450 | B4 |
| 0.008 OD450 | B5 |
| 0.017 OD450 | B6 |
| 0.006 OD450 | B7 |
| 2.1 OD450 | B8 |
| 1.86 OD450 | B9 |
| 0.003 OD450 | B10 |
| 0.026 OD450 | B11 |
| 0.083 OD450 | B12 |
| 0.002 OD450 | B13 |
| 0.177 OD450 | B14 |

Target: T2, transforming growth factor-beta 2 …
Assay: as above
Description: as §1

| ELISA OD450 | Binder |
| --- | --- |
| 0.007 OD450 | B1 |
| 0.005 OD450 | B2 |
| 2.09 OD450 | B3 |
| 0.717 OD450 | B4 |
| -0.003 OD450 | B5 |
| 0.005 OD450 | B6 |
| 0.002 OD450 | B7 |
| 1.63 OD450 | B8 |
| 0.91 OD450 | B9 |
| -0.006 OD450 | B10 |
| 0.013 OD450 | B11 |
| 0.066 OD450 | B12 |
| 0.001 OD450 | B13 |
| 0.009 OD450 | B14 |

Target: T3, transforming growth factor-beta 3 …
Assay: as above
Description: as §1

| ELISA OD450 | Binder |
| --- | --- |
| 0.012 OD450 | B1 |
| 0.068 OD450 | B2 |
| 0.399 OD450 | B3 |
| 0.091 OD450 | B4 |
| 0.003 OD450 | B5 |
| 0.025 OD450 | B6 |
| 0.004 OD450 | B7 |
| 0.3 OD450 | B8 |
| 0.074 OD450 | B9 |
| 0.004 OD450 | B10 |
| 0.006 OD450 | B11 |
| 0.016 OD450 | B12 |
| 0.001 OD450 | B13 |
| 0.007 OD450 | B14 |
